In patent publication US20210063414A1, “METHODS FOR PREVENTING AND/OR TREATING BONE LOSS CONDITIONS BY MODULATING IRISIN” (Dana-Farber Cancer Institute, Inc., priority 2018, published 2021):

Target: T1, MLO-Y4 cell surface proteins (Mus musculus, UniProt B1AVY7)
T1 construct: endogenous in cells; host or cells: MLO-Y4
T1 sequence (B1AVY7 1-1312): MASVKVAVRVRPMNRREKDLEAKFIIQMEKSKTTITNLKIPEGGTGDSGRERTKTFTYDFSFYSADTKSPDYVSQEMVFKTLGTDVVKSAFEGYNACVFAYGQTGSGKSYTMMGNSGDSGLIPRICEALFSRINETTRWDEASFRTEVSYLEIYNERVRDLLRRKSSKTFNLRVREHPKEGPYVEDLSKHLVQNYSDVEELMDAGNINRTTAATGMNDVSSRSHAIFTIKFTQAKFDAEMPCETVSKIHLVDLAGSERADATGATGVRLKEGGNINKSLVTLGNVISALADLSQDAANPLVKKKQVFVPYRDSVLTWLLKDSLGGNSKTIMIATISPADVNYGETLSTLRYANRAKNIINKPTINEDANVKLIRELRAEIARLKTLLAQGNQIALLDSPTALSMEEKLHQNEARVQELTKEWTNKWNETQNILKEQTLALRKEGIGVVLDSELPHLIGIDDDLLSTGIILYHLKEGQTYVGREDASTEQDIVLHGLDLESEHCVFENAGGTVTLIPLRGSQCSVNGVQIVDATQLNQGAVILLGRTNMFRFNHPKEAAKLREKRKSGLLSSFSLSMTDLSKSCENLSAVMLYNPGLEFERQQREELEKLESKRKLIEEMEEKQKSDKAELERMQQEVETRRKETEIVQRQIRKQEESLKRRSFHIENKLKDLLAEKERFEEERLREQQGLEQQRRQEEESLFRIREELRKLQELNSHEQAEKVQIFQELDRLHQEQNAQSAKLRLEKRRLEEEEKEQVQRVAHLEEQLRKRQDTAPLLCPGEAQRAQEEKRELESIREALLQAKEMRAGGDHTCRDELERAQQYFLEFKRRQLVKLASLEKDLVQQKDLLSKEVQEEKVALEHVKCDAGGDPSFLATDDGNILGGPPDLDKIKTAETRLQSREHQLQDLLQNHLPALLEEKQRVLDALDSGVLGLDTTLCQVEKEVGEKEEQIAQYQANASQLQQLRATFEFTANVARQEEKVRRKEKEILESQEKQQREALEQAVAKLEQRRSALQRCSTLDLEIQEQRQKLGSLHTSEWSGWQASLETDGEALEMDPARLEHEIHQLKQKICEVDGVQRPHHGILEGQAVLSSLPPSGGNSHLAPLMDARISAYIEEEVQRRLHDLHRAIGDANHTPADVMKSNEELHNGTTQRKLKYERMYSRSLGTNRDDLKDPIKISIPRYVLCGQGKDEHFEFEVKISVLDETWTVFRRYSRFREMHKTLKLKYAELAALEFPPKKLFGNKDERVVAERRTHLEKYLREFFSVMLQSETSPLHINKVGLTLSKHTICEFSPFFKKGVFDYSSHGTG
Assay: Crosslinking/co-immunoprecipitation/mass spectrometry (TMT quantitative proteomics) to identify irisin receptors
Type: binding
Conditions: co-precipitated protein Kif16b (KI16B_MOUSE)
Procedure, shortened: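 Relative protein abundance came from 6-plex TMT MS3 quantitation on an Orbitrap Fusion Lumos, after in-gel trypsin digestion of Coomassie-stained SDS-PAGE lanes. Input was a Ni-NTA pulldown (250 mM imidazole elution) of lysates from murine MLO-Y4 cells. These cells were treated on ice with His-tagged irisin or adipsin (10 nM, 20 min) in serum-free medium, then crosslinked with 1.5 mM DTSSP for 30 min.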

adipsin
TMT signal-to-noise ratio: 1117.61
